Experimental data as given in PMC7343221 (Nature structural & molecular biology, 2020).

Target: the molecule itself
Test: cryo-EM structure

B1: N-terminal IST1 R16E/K27E mutant (IST1NTD^R16E/K27E) (domain or fragment, human, UniProt P53990 1-189, looked up)
chain: MLGSGFKAERLRVNLELVINRLKLLEEKKTELAQKARKEIADYLAAGKDERARIRVEHIIREDYLVEAMEILELYCDLLLARFGLIQSMKELDSGLAESVSTLIWAAPRLQSEVAELKIVADQLCAKYSKEYGKLCRTNQIGTVNDRLMHKLSVEAPPKILVERYLIEIAKNYNVPYEPDSVVMAEAPP
B1: binds.
